{
  "source": "patent US20240084280A1",
  "binders": {"B1": {"name": "trimucrin variant RR (protein)", "chain": "EAGEECDCGSPENPCCDAATCKLRPGAQCAEGLCCDQCRFKKKRTICRRAKGDRRDDRCTGQSADCPRNRLYG"}},
  "molecular_target": "integrin alpha(IIb)beta(3) (UniProt P08514)",
  "experiment": "cell-based or functional assay",
  "data": [
    {"binder": "B1", "values": [
      {"measurement": "IC50: platelet aggregation (ADP-induced, platelet-rich plasma)", "result": 52.5, "unit": "nM"}
    ]}
  ]
}
